Test results taken from US20120264616A1.

Target: receptor for IFN λ expressed by reporter HL116 cells (UniProt Q8IU57)
Experiment: cell-based or functional assay

Chain of UniProt Q8IU57 (Q8IU57 21-520 limits assumed): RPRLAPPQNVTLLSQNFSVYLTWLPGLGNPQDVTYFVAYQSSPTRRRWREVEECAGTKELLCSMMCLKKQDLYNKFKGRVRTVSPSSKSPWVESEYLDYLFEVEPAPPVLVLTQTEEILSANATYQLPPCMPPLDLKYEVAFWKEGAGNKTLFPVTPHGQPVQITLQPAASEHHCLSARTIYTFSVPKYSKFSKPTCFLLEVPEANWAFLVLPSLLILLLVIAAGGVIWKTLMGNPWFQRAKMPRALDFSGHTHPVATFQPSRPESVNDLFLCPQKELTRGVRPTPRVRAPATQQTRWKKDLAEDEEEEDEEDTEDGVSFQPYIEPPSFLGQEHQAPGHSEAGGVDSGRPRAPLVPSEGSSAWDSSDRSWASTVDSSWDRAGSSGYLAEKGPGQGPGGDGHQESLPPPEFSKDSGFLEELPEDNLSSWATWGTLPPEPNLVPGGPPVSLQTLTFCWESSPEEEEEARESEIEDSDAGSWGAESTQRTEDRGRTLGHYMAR

Work on “interferon lambda (IFN λ) secreted into the culture supernatant by 293T cell clones transduced with parental lentiviral particles (ligand)” yielded a Luc exp 1, clone 1 of 68.2, a Luc exp 1, clone 2 of 73.2 and a Luc exp 1, clone 3 of 80.8. For the same substance, the Luc exp 1, clone 4 was 84.3, the Luc exp 1, clone 5 was 100 and the Luc exp 1, clone 6 was 77.7. The Luc exp 1, clone 7 was 90.9, the Luc exp 1, clone 8 was 88.9 and the Luc exp 1, clone 9 was 78.7. It also gave a Luc exp 1, clone 10 of 89.8, a Luc exp 1, clone 11 of 95.4 and a Luc exp 1, clone 12 of 77.2. It also gave a Luc exp 1, clone 13 of 94.4, a Luc exp 1, clone 14 of 89.2 and a Luc exp 1, clone 15 of 87.6. The Luc exp 1, clone 16 was 81.4, the Luc exp 1, clone 17 was 79.9 and the Luc exp 2, clone 1 was 68.8. It also gave a Luc exp 2, clone 2 of 66.3, a Luc exp 2, clone 3 of 87.3 and a Luc exp 2, clone 4 of 88.1. For the same substance, the Luc exp 2, clone 5 was 97.8, the Luc exp 2, clone 6 was 88.3 and the Luc exp 2, clone 7 was 95.1. It also gave a Luc exp 2, clone 8 of 107, a Luc exp 2, clone 9 of 99.2 and a Luc exp 2, clone 10 of 86.9. It also gave a Luc exp 2, clone 11 of 75.8, a Luc exp 2, clone 12 of 91.6 and a Luc exp 2, clone 13 of 94.8. The Luc exp 2, clone 14 was 72.9, the Luc exp 2, clone 15 was 87.8 and the Luc exp 2, clone 16 was 77.2. The Luc exp 2, clone 17 was 71.7, the Luciferase average, clone 1 was 68.2 and the Luciferase average, clone 2 was 69.7. It also gave a Luciferase average, clone 3 of 84, a Luciferase average, clone 4 of 86.3 and a Luciferase average, clone 5 of 99. The Luciferase average, clone 6 was 83, the Luciferase average, clone 7 was 93 and the Luciferase average, clone 8 was 97.9. For the same substance, the Luciferase average, clone 9 was 89, the Luciferase average, clone 10 was 88.3 and the Luciferase average, clone 11 was 85.6. It also gave a Luciferase average, clone 12 of 84.4, a Luciferase average, clone 13 of 94.6 and a Luciferase average, clone 14 of 81.1. For the same substance, the Luciferase average, clone 15 was 87.7, the Luciferase average, clone 16 was 79.3 and the Luciferase average, clone 17 was 75.8.
